± gives the uncertainty stated by the source.
Experiment: protein stability index of a GFP-peptide fusion (yeast GPS) (PSI 1-4); higher = more stable; sorted into four equal gates, so the index is relative within each strain
Outline: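 The protein stability index of a peptide was calculated by multiplying its read frequency in each gate by that gate's number and adding the products. The peptides were tiled 17-residue stretches of yeast proteins, fused downstream of GFP on a Cherry-expressing plasmid and carried in yeast as a pooled library. Mid-log cultures in leucine-free medium were sorted into four equal gates by GFP/Cherry ratio, and each gate's plasmids were PCR-amplified and Illumina-sequenced.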

Row | Sequence | protein stability index (doa10∆) | protein stability index (pdr5∆) | protein stability index (san1∆) | protein stability index (ubr1∆)
1 | HYKVPTDTSTTATAATN [MED6] | 2.28 ± 0.054 | 2.62 ± 0.053 | 2.29 ± 0.067 | 2.61 ± 0.044
2 | PQNMLFEGCYYTPEESA [RPC25] | – | 2.42 ± 0.21 | 2.55 ± 0.21 | 2.5 ± 0.12
3 | WAMQGISYLQEVQCTST [PCI8] | 3.32 ± 0.15 | 3.06 ± 0.13 | 2.19 ± 0.16 | 3.02 ± 0.099
4 | KLYVSHIQVNQAPKQRR [RPL17A] | 1.89 ± 0.079 | 1.92 ± 0.068 | 2.02 ± 0.14 | 2.08 ± 0.11
5 | DKFKLNENDLKTYNCLH [SMC1] | 2.7 ± 0.14 | 2.5 ± 0.12 | – | 2.85 ± 0.094
6 | QIVDIRNKRAVQLPILK [YJL039C/NUP192] | 2.2 ± 0.1 | 2.04 ± 0.053 | 1.43 ± 0.056 | 1.92 ± 0.058
7 | TDAYLDQYLWYEADQRK [PRP8] | 3.18 ± 0.12 | 3.21 ± 0.17 | 3.02 ± 0.18 | 3.12 ± 0.081
8 | IKLNGSTLLCTDLESKS [SNU114] | 2.67 ± 0.06 | 2.73 ± 0.058 | 2.54 ± 0.056 | 2.82 ± 0.063
9 | NIETGENHNGQSISNEN [SWI3] | 2.59 ± 0.26 | 3.14 ± 0.12 | 3.06 ± 0.12 | 3.13 ± 0.12
10 | TRTVITDWDPQFNAITG [SMC2] | 2.96 ± 0.099 | 2.99 ± 0.083 | 2.67 ± 0.1 | 2.76 ± 0.098
11 | SLPEGLLKSLWDYVKKN [TAF14] | 3.01 ± 0.17 | 2.02 ± 0.079 | – | 3.13 ± 0.093
12 | HLLVKQGDGLLTKLQKY [RPN7] | 2.97 ± 0.13 | 2.44 ± 0.1 | 3.19 ± 0.12 | 3 ± 0.16
13 | YQNMAFITAKDKYKLYP [YJR042W/NUP85] | 2.9 ± 0.063 | 3.06 ± 0.11 | 3.16 ± 0.076 | 2.88 ± 0.077
14 | SETQTKDENNTANDQYS [YCG1] | 2.89 ± 0.069 | 3.15 ± 0.056 | 2.84 ± 0.041 | 3 ± 0.044
15 | VTYSRVSKKVDVRRLKK [BRN1] | – | 1.32 ± 0.14 | – | 3.23 ± 0.15
16 | RVNKNAPAVELHGNAKK [FAS2] | 2.74 ± 0.071 | 3.14 ± 0.07 | 3.2 ± 0.18 | 2.93 ± 0.058
17 | LKVDPDMLTWVDSNLPD [RPC40] | 3.02 ± 0.082 | 3.13 ± 0.062 | 2.54 ± 0.16 | 3.26 ± 0.073
18 | IPGEYVTYALSGYVRSR [RPS21A] | 2.18 ± 0.29 | – | 2.61 ± 0.21 | 2.92 ± 0.16
19 | MSAQKAPKWYPSEDVAA [RPL6A] | 2.03 ± 0.12 | 2.35 ± 0.13 | 1.57 ± 0.27 | 2.1 ± 0.071
20 | LEPDYQAPFSTSTKDKN [MED1] | 2.84 ± 0.075 | 3 ± 0.08 | 2.81 ± 0.084 | 3.08 ± 0.074
21 | RAEAKAQGVAVQLKRQP [RPL21A] | 2.75 ± 0.096 | 2.19 ± 0.08 | 1.71 ± 0.12 | 2.46 ± 0.11
22 | TNNGNDDNETENPNFWR [GRR1] | 2.74 ± 0.066 | 3.16 ± 0.05 | 2.37 ± 0.053 | 2.75 ± 0.041
23 | PQIVKLFDISREALSGR [ECM29] | 3.44 ± 0.15 | 3.26 ± 0.1 | 3.59 ± 0.081 | 2.95 ± 0.054
24 | GNPLLYDGVERVSLQDI [QCR2] | 1.73 ± 0.23 | 2.18 ± 0.17 | 2.03 ± 0.17 | 2.19 ± 0.17
25 | EYRPFSKKVLECLPAEG [DIS3] | 1.39 ± 0.13 | 1.68 ± 0.12 | 1.46 ± 0.1 | 1.56 ± 0.068
26 | ERRLQTQVYKLGLAKSV [RPS9A] | 1.29 ± 0.067 | 1.23 ± 0.056 | 1.2 ± 0.18 | 1.23 ± 0.064
27 | NPIANHTVTNSPNPTLQ [SNF5] | 2.64 ± 0.038 | 2.83 ± 0.046 | 2.65 ± 0.038 | 2.65 ± 0.03

Row | Sequence | protein stability index (doa10∆) | protein stability index (pdr5∆) | protein stability index (san1∆) | protein stability index (ubr1∆)
28 | LYKEFFNEKFPSLIQEE [NUT1] | 3 ± 0.13 | 3.19 ± 0.13 | 3.06 ± 0.059 | 3.2 ± 0.12
29 | TTLVTRREELQQRIREI [SMC3] | 3.06 ± 0.2 | – | – | –
30 | DKDRDTRRKRRQGRSNR [SNF5] | 3.6 ± 0.23 | 3.48 ± 0.16 | 3.31 ± 0.096 | 3.55 ± 0.14
31 | NTNNNDTIATSATPNAA [GAL11] | 2.7 ± 0.046 | 2.88 ± 0.046 | 2.59 ± 0.044 | 2.74 ± 0.043
32 | GAMGLLSSAGAKSTVET [RIP1] | 2.01 ± 0.12 | 2.46 ± 0.11 | 2.14 ± 0.18 | 2.35 ± 0.09
33 | EQFLETDSDFAKYHAKL [SRP68] | 2.83 ± 0.07 | 2.94 ± 0.067 | 2.79 ± 0.05 | 2.77 ± 0.089
34 | QYDFKAVLEENDENDDE [RPN14] | 3.04 ± 0.11 | 3.24 ± 0.075 | 3.05 ± 0.076 | 2.89 ± 0.055
35 | PRYFSEAINGFKDETIS [SIR3] | 2.77 ± 0.057 | 2.87 ± 0.054 | 2.46 ± 0.11 | 2.84 ± 0.048
36 | AIEPETFTQLVSSSLYE [PUP3] | 2.35 ± 0.063 | 2.89 ± 0.068 | 2.75 ± 0.063 | 2.54 ± 0.043
37 | PSEDVAALKKTRKAARP [RPL6A] | 2.83 ± 0.062 | 3.02 ± 0.048 | 2.95 ± 0.039 | 3.05 ± 0.047
38 | NDLDEDDIYDISLLKNR [RPN4] | 2.87 ± 0.12 | 3.2 ± 0.11 | 3.23 ± 0.14 | 3.22 ± 0.2
39 | NPPSYQSSEDVITIKSR [RPB7] | 2.78 ± 0.17 | – | 2.6 ± 0.12 | 2.25 ± 0.28
40 | VFIRHRTPHEIQEANSV [RIP1] | – | 2.24 ± 0.28 | – | 1.69 ± 0.17
41 | TFVPTNSDKPRDVYVFD [DIS3] | 3 ± 0.062 | 2.93 ± 0.071 | 3.11 ± 0.064 | 3 ± 0.059
42 | YTMSNHGMSVDPRHIQL [RPO31] | 2.85 ± 0.066 | 2.91 ± 0.083 | 2.94 ± 0.053 | 3.01 ± 0.044
43 | NNRRRSRKRGGENVFLK [SIR3] | 3.6 ± 0.11 | 3.23 ± 0.084 | 3.07 ± 0.086 | 3.33 ± 0.048
44 | RKEGPTIYYVDSDGTRL [PRE2] | 2.24 ± 0.048 | 1.9 ± 0.034 | 2.03 ± 0.074 | 2.32 ± 0.034
45 | GNPGLPQYQYQRRYVIK [ITC1] | 3.27 ± 0.2 | 3.04 ± 0.15 | 2.87 ± 0.079 | 3.34 ± 0.095
46 | IKEDIKKQPSILVGGTL [SNF2] | 1.93 ± 0.084 | 2.15 ± 0.12 | 2.92 ± 0.12 | 3.27 ± 0.14
47 | YSSWSAQTIGRNSKTVR [PRE6] | 2.62 ± 0.14 | 2.9 ± 0.14 | 2.91 ± 0.12 | 2.85 ± 0.098
48 | FGANQATNTFGSNQQSS [YGR119C/NUP57] | 2.91 ± 0.12 | 3.26 ± 0.076 | 3.2 ± 0.12 | 2.92 ± 0.073
49 | KKRMNSNQERCHDEGND [RRI1] | 3.24 ± 0.064 | 3.01 ± 0.068 | 3.06 ± 0.071 | 3.13 ± 0.061
50 | PLVQADLYEQIGIDPPR [RPT3] | 2.48 ± 0.074 | 2.83 ± 0.1 | 2.63 ± 0.066 | 2.83 ± 0.081
51 | PVTIWLFEQIGIRIKGK [SME1] | 2.42 ± 0.057 | 2.28 ± 0.053 | 2.35 ± 0.066 | 2.45 ± 0.039
52 | QGATNEGYQNDINTIKL [SRP72] | 3.54 ± 0.27 | 3.15 ± 0.17 | 2.46 ± 0.23 | –
53 | INLTKVTQKDICILGIL [CSI1] | 2.78 ± 0.07 | 2.83 ± 0.07 | 3.03 ± 0.059 | 3.11 ± 0.15

Reference: the supplement of paper PMC9732359
